Where a chain is given by its changes, count along the chain named. One block for each binder: values may come before it.
Columns and labels:
[1] = target: T1, Native Nav1.7 (3-1) peptide, rat (rat); experiment: SPR, captured antibody, peptide analyte
T1 construct: Synthetic peptide; also called Rat Nav1.7 3-1 native
T1 peptide: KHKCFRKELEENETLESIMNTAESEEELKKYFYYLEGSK
Outline: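 Peptide analytes flowed at multiple concentrations over anti-Nav1.7 antibodies held by an anti-Fc capture surface. After reference-surface and buffer-blank subtraction, a global 1:1 Langmuir fit gave ka and kd, with KD as kd/ka and dissociative half-life as ln2/kd.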

[2] = target: T2, N-Term Biotin-Nav1.7 (3-1) peptide, human (human, not fully specified; N-terminal biotin attached via a G4S linker); experiment: ELISA on coated peptide, antibody 1 ug/ml, OD450 grade
T2 construct: ELISA peptide
T2 peptide: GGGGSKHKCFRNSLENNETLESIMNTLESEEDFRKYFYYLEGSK
Outline: (§1)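 Binding graded from absorbance at OD450 for antibodies applied at 1 μg/ml (− below 0.2, + 0.2–1, ++ 1–2, +++ 2–4; NT not tested); antibodies were also run at 0.1 μg/mL. Biotin-peptides at 0.4 μg/mL on avidin-coated plates, other peptides at 4 μg/mL; 1 h RT binding; HRP anti-IgG/TMB detection.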

[3] = target: T3, N-Term Biotin Nav1.7 (3-1) peptide, mulatta (mulatta (monkey), not fully specified; N-terminal biotin attached via a G4S linker); experiment: as above
T3 construct: Synthetic peptide; also called Mulatta Nav1.7 3-1 N-term biotin; monkey
T3 peptide: T2 peptide with F10V, R11Q, E15V
Outline: as §1

[4] = target: T4, full-length human Nav1.7 fused at its N-terminus to GFP, expressed in HEK293 cells (human, UniProt Q15858 1-1988); experiment: flow cytometry on Nav1.7-GFP-HEK293, antibody 3.3 nM preincubated with 3.3 uM EC 3-1 peptide as competitor
T4 construct: Voltage-gated sodium channel alpha subunit; In the Western blot it stood as denatured cell lysate; also called hNav 1.7-GFP-HEK293; Nav 1.7-GFP-HEK293; not shown: green fluorescent protein (GFP) at the N-terminus
Description: The specificity of binding of anti-Naᵥ 1.7 human antibodies to full-length Naᵥ 1.7 expressed in HEK293 cells was determined by peptide competition experiments using flow cytometry.
HEK293 cells stably-transfected with full-length Naᵥ 1.7 fused at its N-terminus to GFP (Naᵥ 1.7-GFP-HEK293) were used for this study. Antibody binding to the transfected cells overexpressing Naᵥ 1.7 was compared to binding in the presence of excess peptide and to binding to the parental HEK293 cell line. To perform the binding experiments, adherent cells were collected using 1 mM EDTA in PBS, washed and re-suspended in cold PBS containing 5% FBS. For each binding experiment the anti-Naᵥ 1.7 antibody at a final concentration of 3.3 nM (in PBS/5% FBS) was added to cells either directly or after incubating for 10 min on ice with a 1000-fold molar excess (3.3 uM final concentration in PBS/5% FBS) of synthetic peptide with sequence corresponding to the loop specificity of the antibody. The antibodies designated as H4H391P, H4H443B, H4H448B, and H1M797N were preincubated as described above with a synthetic peptide corresponding to EC loop 3-1 (amino acid residues 269-338 of SEQ ID NO: 670), whereas the antibodies designated as H4H468P and H1 M852N were preincubated with a synthetic peptide corresponding to EC loop 3-3 (amino acid residues 1333-1382 of SEQ ID NO: 670). The antibody or antibody-peptide mixture was then allowed to incubate with cells for 20 min on ice, followed by addition of 500 uL of cold PBS/5% FBS. Cells were collected by centrifugation, resuspended in 500 uL of cold PBS/5% FBS, and then secondary antibody matched to the antibody isotype (either anti-human-Fc conjugated to Cyanine 5 or anti-mouse-Fc conjugated to allophyococyanin) was added. Binding was detected on the flow cytometry instrument and analyzed as percent binding using the instrument software. For FACS analysis appropriate gating was applied so that only healthy, live cells were counted. Background staining of secondary antibodies alone to Naᵥ 1.7-GFP-HEK293 cells was tested and recorded for all samples, and results ranged between 1-2% binding.

[5] = target: T5, N-Term Biotin Nav1.7 (3-1) peptide, mouse (mouse, not fully specified; N-terminal biotin attached via a G4S linker); experiment: ELISA on coated peptide, antibody 1 ug/ml, OD450 grade
T5 construct: Synthetic peptide; also called Mouse Nav1.7 3-1 N-term biotin
T5 peptide: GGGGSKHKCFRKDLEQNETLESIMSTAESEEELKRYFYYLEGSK
Outline: as §1

[6] = target: T1, Native Nav1.7 (3-1) peptide, rat; experiment: as above
Outline: as §1

B2: H1H1006B (antibody, V domains shown)
VH: EVQLVESGPGLVKSSETLSLKCTVSGGSISSSGYYWGWIRQPPGKGLEWIGSIHRSGSTFYNPSLKSRVTISVDTSKSQFSLRLTSVTAADTSVYFCGRHGRDYYYGMDVWGQGTTVTVSS
VL: DIQMTQSPSSVSASVGDRVTITCRSSQDINNWLVWYQQKPGKAPKVLIYGASRLQSGVPSRFSGSGSGTDFTLTISSLQPEDFATYYCQQANSFPLTFGGGTKVEIKR
notes: Fully human antibody; also called H4H1006B-1
Kd [1]: 33.9 nM
t1/2 [1]: 0.74 min
OD450 [2]: 2 to 4 od
OD450 [3]: 2 to 4 od
OD450 [5]: 2 to 4 od
OD450 [6]: 2 to 4 od

B3: H1M836N (antibody, V domains shown)
VH: QVQLVESGGGVVQPGRSLRLSCAASGFTFSSYGMHWVRQAPGKGLEWVAVISYDGNNKYYADSVKGRFTISRDNSKNTLYLQMNSLRAEDTAVYYCAKGSAGYALDYWGQGTLVTVSS
VL: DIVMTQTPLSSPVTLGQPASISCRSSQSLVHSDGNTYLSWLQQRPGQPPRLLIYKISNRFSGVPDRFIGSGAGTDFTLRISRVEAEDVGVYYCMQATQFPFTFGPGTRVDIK
Kd [1]: 298 nM
t1/2 [1]: 0.1 min
OD450 [2]: 2 to 4 od
OD450 [3]: 2 to 4 od
OD450 [6]: 1 to 2 od
% Binding Nav1.7 + 1000x Peptide (Competition Binding) [4]: 2.2%

B4: H1M797N (antibody, V domains shown)
VH: QVQLVESGGGVVQPGRSLRLSCAASGFTFSSYGMHWVRQAPGKGLEWVAVISYDGNNKHFADSVKGRFTISRDNSKNTLNLQMNSLRAEDRAVYYCARGASGFVLDIWGQGTMVTVSS
VL: DIVMTQTPLSSPVTLGQPASISCRSSQSLVRSDGNTYLSWLQQRPGQPPRLLIYKISNRFSGVPDRFSGSGAGTDFTLKISRVEAEDVGIYFCMQTTQFPFTFGPGTKVDIK
Kd [1]: 2.57 nM
t1/2 [1]: 5.8 min
OD450 [2]: 2 to 4 od
OD450 [3]: 2 to 4 od
OD450 [5]: 2 to 4 od
OD450 [6]: 2 to 4 od
% Binding Nav1.7 + 1000x Peptide (Competition Binding) [4]: 10.8%

Next, values leading:

binding result [1]: no binding
OD450 [2]: 2 to 4 od
OD450 [3]: 2 to 4 od
% Binding Nav1.7 + 1000x Peptide (Competition Binding) [4]: 1.3%
B1: H1M879N (antibody, V domains shown)
VH: EVQLVESGGGLVKPGGSLRLSCAASGFTFSSYTIHWVRQAPGKGLEWVSSISSSSSYIYYVDSVKGRFTISRDNAKNSVYLQMNSLRAEDTAVYYCATSSITARGYFDYWGQGTLVTVSS
VL: EIVLTQSPATLSLSPGERVTLSCRASQSVSSYLAWYQQKPGQAPRLLIYDASNRATGIPARFSGSGSGTDFTLTISSLEPEDFAVYYCQQRNIWPPTFGQGTKVEIK
notes: Hybridoma-derived

Kd [1]: 4.16 nM
t1/2 [1]: 3.6 min
OD450 [2]: 1 to 2 od
OD450 [3]: 2 to 4 od
OD450 [5]: 1 to 2 od
OD450 [6]: 1 to 2 od
% Binding Nav1.7 + 1000x Peptide (Competition Binding) [4]: 1.9%
B5: H1M801N (antibody, V domains shown)
VH: QVQVVESGGGVVQPGRSLRLSCAASGFTFSNYGMHWVRQAPGKGLEWVTVISYDGSNKNYADSVKGRFTISRDNSKNTLYLQMNSLRAEDTAMYYCARGGSGFAFDIWGQGTMVTVSS
VL: B4 VL with E86D, I90V, F92Y
notes: also called H1H801N
